As a reminder, the EC50 is the concentration that produces a half-maximal response. A low value points to higher potency in that assay.

The target of one experiment is T1, SARS-CoV-2 S1蛋白 (SARS-CoV-2, UniProt P0DTC2 16-685).
T1 construct: domain: S1
The experiment can be described thus: ELISA.

The target in another experiment is T2, SARS-CoV-2 S2蛋白 (SARS-CoV-2, UniProt P0DTC2 686-1213).
T2 construct: domain: S2
The experiment can be described thus: ELISA, antibody on S2 protein. In general terms: ELISA stands for enzyme-linked immunosorbent assay.

The target of experiment [1] is T3, SARS-CoV-2 S蛋白 (SARS-CoV-2, UniProt P0DTC2 16-1213). The experiment can be described thus: ELISA, antibody on S protein.
The target in experiment [2] is T3, SARS-CoV-2 S蛋白. The experiment is described as follows: cell-based or functional assay.

B1: 全人单克隆抗体17-2 (antibody, V domains shown)
VH: QLQLQESGPGLVKASETLSLTCTVSSGSVSSDSYYWSWIRQPPGKGLEWIGYIYYSGSTNYNPSLKSRVTMSVDTSKNQFSLKLDSVTAADTAAYYCARGPLGLYYYYMDVWGKGTTVTVSS
VL: DIQMTQSPSSLSASVGDRVTITCRASQSINNYLNWYQQKPGKAPKLLIYAASSLQSGVPSRFSGSGSGTDFALTISGLQPEDFATYYCQESNSSPFTFGPGTKVDIK
notes: also called 17-2抗体
In the case of B1, the binding result with SARS-CoV-2 S1蛋白 was “no binding”. Further, the EC50 in the experiment with SARS-CoV-2 S2蛋白 is 0.038 µg/mL; with SARS-CoV-2 S蛋白 [1] it was 0.034 µg/mL. Also, the “假病毒中和实验 IC50” value in the experiment with SARS-CoV-2 S蛋白 [2] was determined as 0.587 µg/mL.
